From the supplement of paper PMC9233669
Fewer inactive variants are shown than the library holds.

Tests used:
biotinyl-Phe-oxazolone = assay: self-aminoacylation, catalytic enhancement (BFO) (fold over background); higher = more active; k-Seq, kA / k0A0; sequences stand for … in GGGAAUGGAUCCACAUCUACGAAUUC…UUCACUGCAGACUUGACGAAGCUG
Outline: (§1)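 Mutagenized RNA pools with a 21-nt variable region (0.43 μM) reacted with each biotinyl-aminoacyl-oxazolone at 2–1250 μM. Reactions ran in 50 μL HEPES/NaCl/KCl/MgCl2/CaCl2 buffer with 5% acetonitrile, pH 6.9–7.0, for 90 minutes at room temperature. Streptavidin-captured RNA was quantified by triplicate qPCR and Illumina sequencing, and per-sequence fraction reacted was fit to a pseudo-first-order model with 1000 bootstraps. Catalytic enhancement is median kA divided by the uncatalyzed rate, the low-activity peak of a bimodal Gaussian fit.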

biotinyl-Met-oxazolone = assay: self-aminoacylation, catalytic enhancement (BMO) (fold over background); higher = more active; k-Seq, kA / k0A0; sequences stand for … in GGGAAUGGAUCCACAUCUACGAAUUC…UUCACUGCAGACUUGACGAAGCUG
Outline: as §1

biotinyl-Trp-oxazolone = assay: self-aminoacylation, catalytic enhancement (BWO) (fold over background); higher = more active; k-Seq, kA / k0A0; sequences stand for … in GGGAAUGGAUCCACAUCUACGAAUUC…UUCACUGCAGACUUGACGAAGCUG
Outline: as §1

biotinyl-Leu-oxazolone = assay: self-aminoacylation, catalytic enhancement (BLO) (fold over background); higher = more active; k-Seq, kA / k0A0; sequences stand for … in GGGAAUGGAUCCACAUCUACGAAUUC…UUCACUGCAGACUUGACGAAGCUG
Outline: as §1

## AACUCUGCUAAUAGUCGCAAG [Fam3.1 aminoacylation ribozyme variant]
biotinyl-Phe-oxazolone
  self-aminoacylation: 16.4
biotinyl-Met-oxazolone
  self-aminoacylation: 2.46
biotinyl-Trp-oxazolone
  self-aminoacylation: 5.56

## AAGAAUGCUAAUAGUCGCAAG [Fam3.1 aminoacylation ribozyme variant]
biotinyl-Phe-oxazolone
  self-aminoacylation: 12.5
biotinyl-Met-oxazolone
  self-aminoacylation: 2.19
biotinyl-Trp-oxazolone
  self-aminoacylation: 3.69

## AAGACUGCUAAUAGUCGCAAG [Fam3.1 aminoacylation ribozyme variant]
biotinyl-Phe-oxazolone
  self-aminoacylation: 18.5
biotinyl-Met-oxazolone
  self-aminoacylation: 2.04
biotinyl-Trp-oxazolone
  self-aminoacylation: 4.56

## AAGAUUGUUAAUAGUCGCAAG [Fam3.1 aminoacylation ribozyme variant]
biotinyl-Phe-oxazolone
  self-aminoacylation: 2.81
biotinyl-Met-oxazolone
  self-aminoacylation: 2.14
biotinyl-Trp-oxazolone
  self-aminoacylation: 2.65

## AAGCUUGCUAAUAGCCGCAAG [Fam3.1 aminoacylation ribozyme variant]
biotinyl-Phe-oxazolone
  self-aminoacylation: 3.2
biotinyl-Met-oxazolone
  self-aminoacylation: 2.25
biotinyl-Leu-oxazolone
  self-aminoacylation: 2.58
biotinyl-Trp-oxazolone
  self-aminoacylation: 3.08

## AAGCUUGCUAAUAGUCGCAGG [Fam3.1 aminoacylation ribozyme variant]
biotinyl-Phe-oxazolone
  self-aminoacylation: 7.7
biotinyl-Leu-oxazolone
  self-aminoacylation: 2.14
biotinyl-Trp-oxazolone
  self-aminoacylation: 2.15

## AAGCUUGGUAAUAGUCGCAAG [Fam3.1 aminoacylation ribozyme variant]
biotinyl-Phe-oxazolone
  self-aminoacylation: 2.69
biotinyl-Met-oxazolone
  self-aminoacylation: 2.46
biotinyl-Leu-oxazolone
  self-aminoacylation: 2.52
biotinyl-Trp-oxazolone
  self-aminoacylation: 2.68

## AAGUGUGCUAAUAGUCGCCAG [Fam3.1 aminoacylation ribozyme variant]
biotinyl-Phe-oxazolone
  self-aminoacylation: 2.38
biotinyl-Leu-oxazolone
  self-aminoacylation: 2.2
biotinyl-Trp-oxazolone
  self-aminoacylation: 2.33

## AAGUUUGCCAAUAGUCGCACG [Fam3.1 aminoacylation ribozyme variant]
biotinyl-Met-oxazolone
  self-aminoacylation: 2.3
biotinyl-Leu-oxazolone
  self-aminoacylation: 2.05

## AAGUUUGCUAAUAGUCGCGUG [Fam3.1 aminoacylation ribozyme variant]
biotinyl-Phe-oxazolone
  self-aminoacylation: 8.13
biotinyl-Met-oxazolone
  self-aminoacylation: 2.33
biotinyl-Leu-oxazolone
  self-aminoacylation: 2.15
biotinyl-Trp-oxazolone
  self-aminoacylation: 2.15

## AAUACCCUGGUCAUCGAGUGG [Fam2.1 aminoacylation ribozyme variant]
biotinyl-Phe-oxazolone
  self-aminoacylation: 7.18
biotinyl-Met-oxazolone
  self-aminoacylation: 2.49
biotinyl-Leu-oxazolone
  self-aminoacylation: 2.81
biotinyl-Trp-oxazolone
  self-aminoacylation: 3.39

## AAUACCCUGGUCCUCGAGUGA [Fam2.1 aminoacylation ribozyme variant]
biotinyl-Phe-oxazolone
  self-aminoacylation: 9.54
biotinyl-Met-oxazolone
  self-aminoacylation: 3.08
biotinyl-Leu-oxazolone
  self-aminoacylation: 3.33
biotinyl-Trp-oxazolone
  self-aminoacylation: 3.22

## AUAACCCUGGUCAUCGUGUGA [Fam2.1 aminoacylation ribozyme variant]
biotinyl-Phe-oxazolone
  self-aminoacylation: 15.2
biotinyl-Met-oxazolone
  self-aminoacylation: 3.15
biotinyl-Leu-oxazolone
  self-aminoacylation: 3.53
biotinyl-Trp-oxazolone
  self-aminoacylation: 3.32

## AUACACCUAGGUCAUCGAGUG [Fam2.2 aminoacylation ribozyme variant]
biotinyl-Phe-oxazolone
  self-aminoacylation: 2.81
biotinyl-Met-oxazolone
  self-aminoacylation: 2.4
biotinyl-Leu-oxazolone
  self-aminoacylation: 2.87
biotinyl-Trp-oxazolone
  self-aminoacylation: 2.4

## AUUAACCUGGCCAUCGAGUGA [Fam2.1 aminoacylation ribozyme variant]
biotinyl-Met-oxazolone
  self-aminoacylation: 2.01
biotinyl-Leu-oxazolone
  self-aminoacylation: 2.11
biotinyl-Trp-oxazolone
  self-aminoacylation: 2.78

## AUUACACUGGUCAUCAAGUGA [Fam2.1 aminoacylation ribozyme variant]
biotinyl-Phe-oxazolone
  self-aminoacylation: 3.52
biotinyl-Met-oxazolone
  self-aminoacylation: 2.7
biotinyl-Leu-oxazolone
  self-aminoacylation: 2.31
biotinyl-Trp-oxazolone
  self-aminoacylation: 3.18

## AUUACCCAGGUCAUCGUGUGA [Fam2.1 aminoacylation ribozyme variant]
biotinyl-Phe-oxazolone
  self-aminoacylation: 21.4
biotinyl-Met-oxazolone
  self-aminoacylation: 3.58
biotinyl-Leu-oxazolone
  self-aminoacylation: 3.86
biotinyl-Trp-oxazolone
  self-aminoacylation: 4.27

## AUUACCCUCGUCAUGGAGUGA [Fam2.1 aminoacylation ribozyme variant]
biotinyl-Phe-oxazolone
  self-aminoacylation: 8.82
biotinyl-Met-oxazolone
  self-aminoacylation: 2.81
biotinyl-Leu-oxazolone
  self-aminoacylation: 3.02
biotinyl-Trp-oxazolone
  self-aminoacylation: 2.5

## AUUACCCUCGUCGUCGAGUGA [Fam2.1 aminoacylation ribozyme variant]
biotinyl-Phe-oxazolone
  self-aminoacylation: 3.84
biotinyl-Leu-oxazolone
  self-aminoacylation: 2.04
biotinyl-Trp-oxazolone
  self-aminoacylation: 2.11

## AUUACCCUGGGCUUCGAGUGA [Fam2.1 aminoacylation ribozyme variant]
biotinyl-Met-oxazolone
  self-aminoacylation: 2.01
biotinyl-Trp-oxazolone
  self-aminoacylation: 2.03

## AUUACCCUGGUCAUCCAGAGA [Fam2.1 aminoacylation ribozyme variant]
biotinyl-Phe-oxazolone
  self-aminoacylation: 2.38
biotinyl-Leu-oxazolone
  self-aminoacylation: 2.03

## AUUACCCUGGUCAUCGAGGGG [Fam2.1 aminoacylation ribozyme variant]
biotinyl-Phe-oxazolone
  self-aminoacylation: 2.86
biotinyl-Met-oxazolone
  self-aminoacylation: 2.75
biotinyl-Leu-oxazolone
  self-aminoacylation: 2.42
biotinyl-Trp-oxazolone
  self-aminoacylation: 2.23

## AUUACCCUGGUCCUCGAGUGG [Fam2.1 aminoacylation ribozyme variant]
biotinyl-Phe-oxazolone
  self-aminoacylation: 2.88
biotinyl-Met-oxazolone
  self-aminoacylation: 2.1

## AUUCACCUAGAUAAUCGGGUG [Fam2.2 aminoacylation ribozyme variant]
biotinyl-Phe-oxazolone
  self-aminoacylation: 12.9
biotinyl-Met-oxazolone
  self-aminoacylation: 2.25
biotinyl-Leu-oxazolone
  self-aminoacylation: 2.79

## AUUCACCUAGGUCCUCGGGAG [Fam2.2 aminoacylation ribozyme variant]
biotinyl-Phe-oxazolone
  self-aminoacylation: 2.83
biotinyl-Leu-oxazolone
  self-aminoacylation: 2.11

## AUUCACUUAGCUCAUCGGGUG [Fam2.2 aminoacylation ribozyme variant]
biotinyl-Phe-oxazolone
  self-aminoacylation: 4.96
biotinyl-Leu-oxazolone
  self-aminoacylation: 2.03

## AUUCUCCUAGGUCAUAGGGUG [Fam2.2 aminoacylation ribozyme variant]
biotinyl-Phe-oxazolone
  self-aminoacylation: 8.67
biotinyl-Met-oxazolone
  self-aminoacylation: 2.33
biotinyl-Leu-oxazolone
  self-aminoacylation: 2.94

## CCACACUUCAAGCAGUCGCUC [Fam1B.1 aminoacylation ribozyme variant]
biotinyl-Phe-oxazolone
  self-aminoacylation: 4.31
biotinyl-Leu-oxazolone
  self-aminoacylation: 2.06

## CCACUCUUCAAGCAAUCGGGC [Fam1B.1 aminoacylation ribozyme variant]
biotinyl-Leu-oxazolone
  self-aminoacylation: 2.21

## CCAGGCUUCAAGCAAUCGGUC [Fam1B.1 aminoacylation ribozyme variant]
biotinyl-Phe-oxazolone
  self-aminoacylation: 83.5
biotinyl-Leu-oxazolone
  self-aminoacylation: 2.42
biotinyl-Trp-oxazolone
  self-aminoacylation: 40.8

## CCGCACUUCAAACAAUCGGUC [Fam1B.1 aminoacylation ribozyme variant]
biotinyl-Phe-oxazolone
  self-aminoacylation: 157
biotinyl-Leu-oxazolone
  self-aminoacylation: 3.41
biotinyl-Trp-oxazolone
  self-aminoacylation: 74.3

## CCUCUUCAAACAAUCGGUCUG [Fam1A.1 aminoacylation ribozyme variant]
biotinyl-Phe-oxazolone
  self-aminoacylation: 85.8
biotinyl-Leu-oxazolone
  self-aminoacylation: 2.36
biotinyl-Trp-oxazolone
  self-aminoacylation: 38.6

## CGACUUCAAACAAUCGGUGUG [Fam1A.1 aminoacylation ribozyme variant]
biotinyl-Phe-oxazolone
  self-aminoacylation: 10.9
biotinyl-Leu-oxazolone
  self-aminoacylation: 2.54
biotinyl-Trp-oxazolone
  self-aminoacylation: 9.56

## CUACCUCAAACAAUCGGCCUG [Fam1A.1 aminoacylation ribozyme variant]
biotinyl-Phe-oxazolone
  self-aminoacylation: 3.13
biotinyl-Leu-oxazolone
  self-aminoacylation: 2.11
biotinyl-Trp-oxazolone
  self-aminoacylation: 5.05

## CUACCUCAAACAUUCGGUCUG [Fam1A.1 aminoacylation ribozyme variant]
biotinyl-Phe-oxazolone
  self-aminoacylation: 10.3
biotinyl-Leu-oxazolone
  self-aminoacylation: 2.13
biotinyl-Trp-oxazolone
  self-aminoacylation: 3.08

## CUACUUCAAACAAUCGAUGUG [Fam1A.1 aminoacylation ribozyme variant]
biotinyl-Phe-oxazolone
  self-aminoacylation: 3.31
biotinyl-Met-oxazolone
  self-aminoacylation: 2.24

## CUACUUCAAACAAUCGGUUUA [Fam1A.1 aminoacylation ribozyme variant]
biotinyl-Phe-oxazolone
  self-aminoacylation: 4.11
biotinyl-Trp-oxazolone
  self-aminoacylation: 2.11

## CUACUUCAAAGAAUCGGCCUG [Fam1A.1 aminoacylation ribozyme variant]
biotinyl-Phe-oxazolone
  self-aminoacylation: 6.89
biotinyl-Leu-oxazolone
  self-aminoacylation: 2
biotinyl-Trp-oxazolone
  self-aminoacylation: 8.54

## CUACUUCAAAUAAUCGGACUG [Fam1A.1 aminoacylation ribozyme variant]
biotinyl-Phe-oxazolone
  self-aminoacylation: 6.03
biotinyl-Trp-oxazolone
  self-aminoacylation: 2.71

## CUACUUCAAAUAAUCGGUAUG [Fam1A.1 aminoacylation ribozyme variant]
biotinyl-Phe-oxazolone
  self-aminoacylation: 7.28
biotinyl-Trp-oxazolone
  self-aminoacylation: 3.96

## CUACUUCAACCAAUCGGUAUG [Fam1A.1 aminoacylation ribozyme variant]
biotinyl-Phe-oxazolone
  self-aminoacylation: 9.31
biotinyl-Trp-oxazolone
  self-aminoacylation: 4.25

## CUACUUCAAUAAAUCGGUCUG [Fam1A.1 aminoacylation ribozyme variant]
biotinyl-Phe-oxazolone
  self-aminoacylation: 7.8
biotinyl-Trp-oxazolone
  self-aminoacylation: 4.71

## CUACUUCAAUGAAUCGGUCUG [Fam1A.1 aminoacylation ribozyme variant]
biotinyl-Phe-oxazolone
  self-aminoacylation: 7.24
biotinyl-Trp-oxazolone
  self-aminoacylation: 5.68

## CUAUUUCAAACAAUCGGCCUG [Fam1A.1 aminoacylation ribozyme variant]
biotinyl-Phe-oxazolone
  self-aminoacylation: 6.32
biotinyl-Trp-oxazolone
  self-aminoacylation: 6.15

## CUCCUUCAAACAAUCAGUCUG [Fam1A.1 aminoacylation ribozyme variant]
biotinyl-Phe-oxazolone
  self-aminoacylation: 20
biotinyl-Trp-oxazolone
  self-aminoacylation: 7.05

## CUCCUUCAAACAAUCGGUGUG [Fam1A.1 aminoacylation ribozyme variant]
biotinyl-Phe-oxazolone
  self-aminoacylation: 8.49
biotinyl-Trp-oxazolone
  self-aminoacylation: 6.8

## CUGCACUUCAAGCAAUCGGUC [Fam1B.1 aminoacylation ribozyme variant]
biotinyl-Phe-oxazolone
  self-aminoacylation: 52
biotinyl-Trp-oxazolone
  self-aminoacylation: 28.1

## CUGCUUCAAACAAUCGGUCUC [Fam1A.1 aminoacylation ribozyme variant]
biotinyl-Phe-oxazolone
  self-aminoacylation: 107
biotinyl-Leu-oxazolone
  self-aminoacylation: 2.47
biotinyl-Trp-oxazolone
  self-aminoacylation: 46

## CUUCUUCAAACAAUCGGUCCG [Fam1A.1 aminoacylation ribozyme variant]
biotinyl-Phe-oxazolone
  self-aminoacylation: 3.96
biotinyl-Trp-oxazolone
  self-aminoacylation: 2.74

## GCACUCUUCAAGCAAUCGGUC [Fam1B.1 aminoacylation ribozyme variant]
biotinyl-Phe-oxazolone
  self-aminoacylation: 6.58
biotinyl-Leu-oxazolone
  self-aminoacylation: 2.07
biotinyl-Trp-oxazolone
  self-aminoacylation: 5.27

## GUACUUCAAACAAUCGGUAUG [Fam1A.1 aminoacylation ribozyme variant]
biotinyl-Phe-oxazolone
  self-aminoacylation: 11.5
biotinyl-Trp-oxazolone
  self-aminoacylation: 9.84

## UCAAACUUCAAGCAAUCGGUC [Fam1B.1 aminoacylation ribozyme variant]
biotinyl-Phe-oxazolone
  self-aminoacylation: 25.8
biotinyl-Trp-oxazolone
  self-aminoacylation: 15.9

## UCAGACUUCAAGCAAUCGGUC [Fam1B.1 aminoacylation ribozyme variant]
biotinyl-Phe-oxazolone
  self-aminoacylation: 63.8
biotinyl-Leu-oxazolone
  self-aminoacylation: 2.62
biotinyl-Trp-oxazolone
  self-aminoacylation: 37.2

## UUACUCCAAACAAUCGGUCUG [Fam1A.1 aminoacylation ribozyme variant]
biotinyl-Phe-oxazolone
  self-aminoacylation: 3.73
biotinyl-Trp-oxazolone
  self-aminoacylation: 2.69

## UUACUUCAAACAAUCGGUCGG [Fam1A.1 aminoacylation ribozyme variant]
biotinyl-Phe-oxazolone
  self-aminoacylation: 18.1
biotinyl-Leu-oxazolone
  self-aminoacylation: 2.1
biotinyl-Trp-oxazolone
  self-aminoacylation: 14.5

## UUACUUCAAACAAUCGGUCUU [Fam1A.1 aminoacylation ribozyme variant]
biotinyl-Phe-oxazolone
  self-aminoacylation: 17
biotinyl-Trp-oxazolone
  self-aminoacylation: 9.31
